Drawing on patent US10005817, this text covers maximal response for 1 substance.

The target of the assay is PTH receptor (PTHR1) (human) (UniProt Q03431). Description: cell-based or functional assay.
Chain of PTH receptor (PTHR1) (human) (Q03431 27-593): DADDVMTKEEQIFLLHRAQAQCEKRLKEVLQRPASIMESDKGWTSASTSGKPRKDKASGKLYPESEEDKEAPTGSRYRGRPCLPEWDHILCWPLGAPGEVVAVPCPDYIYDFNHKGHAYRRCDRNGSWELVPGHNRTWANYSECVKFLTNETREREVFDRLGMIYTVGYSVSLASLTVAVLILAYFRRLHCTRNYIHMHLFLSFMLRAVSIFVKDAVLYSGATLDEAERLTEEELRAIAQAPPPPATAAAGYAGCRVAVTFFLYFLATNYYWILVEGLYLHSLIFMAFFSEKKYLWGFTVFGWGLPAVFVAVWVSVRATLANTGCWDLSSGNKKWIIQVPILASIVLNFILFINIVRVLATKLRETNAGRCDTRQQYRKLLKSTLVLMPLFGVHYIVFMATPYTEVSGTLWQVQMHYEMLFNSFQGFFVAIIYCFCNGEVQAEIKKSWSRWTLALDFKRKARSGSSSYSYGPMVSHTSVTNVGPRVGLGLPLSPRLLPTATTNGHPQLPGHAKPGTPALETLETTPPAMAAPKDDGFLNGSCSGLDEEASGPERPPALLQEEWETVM

Consider PTH (internal standard) (ligand), for which the maximal response is 105%.
